The values that follow come from article PMC12723162, “Alphaherpesvirus pUL21 homologs use non-canonical sequences to compete with cellular adaptors for protein phosphatase 1 binding” (The Journal of Biological Chemistry, 2025).

For test [1], the system named is endogenous PP1α. The experiment in a line: GFP affinity capture / co-IP of endogenous PP1α with GFP-tagged bait. In kind it is binding, human. The note with it: HEK 293T cells, 24 h post-transfection, GFP-Trap, immunoblot; representative of two independent experiments. The text has this:
Bacterial expression plasmids encoding the mouse PP1γ catalytic domain (residues 7–300)-H6 and pUL21-H6, and mammalian expression vectors encoding pUL21(FV242AA)-GFP, pORF38-GFP and pORF38(FV255AA)-GFP, were described previously ([23]). We note that the mouse and human PP1γ catalytic domains share 100% amino acid identity. pORF38-NLT-H6 was generated by sub-cloning residues 1 to 263 of ORF38 into the vector pOPTnH ([52]). pUL21-RVxF-H6 was generated by inserting the mutations A237V and V239F into pUL21-H6 by QuikChange site-directed mutagenesis. Human PP1α was cloned from HeLa cell cDNA into a vector derived from pF5K (Promega) with an N-terminal Myc epitope tag via restriction-based cloning, and point mutations were introduced into Myc-PP1α by QuikChange mutagenesis. A plasmid encoding pUL21-GFP was generated by sub-cloning a codon-optimized synthetic UL21 gene (GeneArt) into pEGFP-N1 (Clontech), yielding an identical pUL21-GFP amino acid sequence as used in ([23]). pUL21-ΔL, -ΔR and -ΔLR were generated from this vector via inverse PCR, and point mutations were introduced via QuikChange mutagenesis.
Mycoplasma-free human embryonic kidney 293T (HEK 293T) cells (American Type Culture Collection #CRL-3216) were maintained in Dulbecco’s modified Eagle’s medium (DMEM) with high glucose (Merck), supplemented with 10% (v/v) heat-inactivated fetal calf serum and 2 mM L-glutamine (complete DMEM) in a humidified 5% CO2 atmosphere at 37 °C. The identity of the cell line was not independently confirmed.
Monolayers of HEK 293T cells were transfected with 7.7 μg of DNA per 9 cm dish, using 18 μg/ml 25 kDa branched polyethylenimine (Merck) or using TransIt-LT1 (Mirus) in accordance with the manufacturer’s instructions. Cells were harvested 24 h post-transfection and incubated for 30 min in ice-cold 10 mM Tris pH 7.5, 150 mM NaCl, 0.5 mM EDTA, 0.5% Igepal CA-630 (a.k.a. NP-40), 1% (v/v) EDTA-free protease inhibitor cocktail (Merck) before clarification at 21,000×g for 10 min at 4 °C. Lysate protein concentrations were measured using the bicinchoninic acid (BCA) assay (Pierce) and normalized before affinity capture using GFP-Trap resin (ChromoTek) following the manufacturer’s protocol. Samples were eluted by heating the resin to 95 °C for 5 min in 45 μl 2 × SDS-PAGE loading buffer. Proteins were separated by SDS-PAGE and transferred to 0.45 μm nitrocellulose membranes (PerkinElmer or Cytiva). Membranes were stained with Ponceau S and imaged using a G:Box XX9 (Syngene) before blocking in Tris-buffered saline with 0.1% TWEEN-20 (TBS-T) supplemented with 5% (w/v) non-fat milk powder. Immunoblotting was performed using antibodies diluted in blocking buffer as listed below, and immunoblots were imaged using an Odyssey CLx (LI-COR Biosciences). Densitometry was performed using Image Studio Lite version 5.2 (LI-COR Biosciences), and statistical tests were performed using Prism version 7 (GraphPad).
The following primary antibodies and dilutions were used for immunoblotting: rabbit anti-CERT 1:10,000 (Abcam #Ab72536), mouse anti-PP1α 1:1000 (Santa Cruz #sc-271762), mouse anti-Myc 1:4000 (Millipore #05–724), rat anti-tubulin (clone YL1/2) hybridoma supernatant 1:40 ([54]). The anti-CERT antibody was validated using a knock-out cell line. The anti-PP1α antibody has been validated by siRNA knockdown ([55]). The anti-Myc antibody was validated using control experiments lacking Myc-tagged transfected constructs ([56]). The anti-tubulin antibody has been validated by immunofluorescence microscopy, immuno-electron microscopy and radiolabeled immunosorbent assay ([54]). Secondary antibodies from LI-COR Biosciences were diluted 1:10,000 as follows: IRDye 680RD goat anti-rat (#926–68029) and goat anti-mouse (#926–68020), or IRDye 800CW goat anti-rabbit (#926–32221).
In general terms: A western blot detects proteins with antibodies after separation by electrophoresis.

The subject of test [2] is endogenous PP1α. As to conditions: HEK 293T cells; cited from earlier work. An excerpt: (§1) HSV-1 pUL21 was recently identified as a novel viral PP1 regulatory protein that promotes virus replication and spread. HSV-1 pUL21 and its homologues across the alphaherpesviruses comprise two folded domains ([21], [22]) that are linked by a flexible linker domain ([23]). PP1 binding to pUL21 requires a novel SLiM, termed the Twenty-one Recruitment Of Protein Phosphatase One (TROPPO) motif, that is present in the linker region and is conserved across alphaherpesviruses.

In another test the test system is endogenous PP1γ. As to conditions: HEK 293T cells; cited from earlier work.
Source text: as §1

Another test concerns endogenous PP1β. As to conditions: HEK 293T cells; cited from earlier work.
Source text: as §1

B1: pUL21-GFP (protein)
chain: MELSYATTMHYRDVVFYVTTDRNRAYFVCGGCVYSVGRPCASQPGEIAKFGLVVRGTGPDDRVVANYVRSELRQRGLQDVRPIGEDEVFLDSVCLLNPNVSSELDVINTNDVEVLDECLAEYCTSLRTSPGVLISGLRVRAQDRIIELFEHPTIVNVSSHFVYTPSPYVFALAQAHLPRLPSSLEALVSGLFDGIPAPRQPLDAHNPRTDVVITGRRAPRPIAGSGAGSGGAGAKRATVSEFVQVKHIDRVGPAGVSPAPPPNNTDSSSLVPGAQDSAPPGPTLRELWWVFYAADRALEEPRADSGLTREEVRAVRGFREQAWKLFGSAGAPRAFIGAALGLSPLQKLAVYYYIIHRERRLSPFPALVRLVGRYTQRHGLYVPRPDDPVLADAINGLFRDALAAGTTAEQLLMFDLLPPKDVPVGSDVQADSTALLRFIESQRLAVPGGVISPEHVAYLGAFLSVLYAGRGRMSAATHTARLTGVTSLVLAVGDVDRLSAFDRGAAGAASRTRAAGYLDVLLTVRLARSQHGQSV
modifications: left off: GFP (from the vector pEGFP-N1), end not stated, kept
Turning to B1, in the test on endogenous PP1α [1], the “Co-IP of endogenous PP1α” value is “efficiently precipitate endogenous PP1α”. Besides, in the test on endogenous PP1α [2], the “Co-precipitation of endogenous PP1α” value is “co-precipitates with endogenous PP1α, PP1β and PP1γ”. Also, the “Co-precipitation of endogenous PP1γ” value in the test with endogenous PP1γ was “co-precipitates with endogenous PP1α, PP1β and PP1γ”. In addition, the “Co-precipitation of endogenous PP1β” value in the test with endogenous PP1β was “co-precipitates with endogenous PP1α, PP1β and PP1γ”.
